Experimental data: patent US20040115763A1

Biological target: secreted FLAG peptide-fused G6 polypeptide G6sec2 (produced with the pVL1393-F2G6sec2-derived recombinant virus) (human) (UniProt Q9BYG0)
Experiment: Western blotting with anti-FLAG antibody

“anti-FLAG peptide antibody (of YEAST AMINO-TERMINAL FLAG EXPRESSION KIT, manufactured by SIGMA)” showed a strength of band (band of G6sec1 eluate defined as 1) (relative to G6sec1 = 1) of 1.05.
